This data set deals with T1, P3L (nucleolin RRM2-derived peptide) (UniProt P19338).
T1 sequence: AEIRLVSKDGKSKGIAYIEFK
The data set can be described thus: ITC. Conditions: 20 mM MOPS pH 7.0, 300 mM NaCl, 25 C.

Kd data for 4 substances are collected here from patent US20170233442.

Consider SCA2CAG22 RNA (unexpanded), for which, for the setting “unexpanded repeat”, the Kd came out at 17.3 µM.

In turn, SCA2CAG42 RNA showed a Kd (unit inferred, uM from context) of 5.6 µM.

SCA2CAG55 RNA came in with a Kd (unit inferred, uM from context) of 4.83 µM.

On to SCA2CAG72 RNA, for which, where the note is “one-site model, CD also showed structural change on RNA addition (FIG. 2)”, the Kd came out at 0.66 µM.
